According to article doi:10.1101/2025.09.09.675230:

Target: Measles virus fusion protein (F) ectodomain, prefusion-stabilized with E170G and E455G (FECT 2M) (Measles virus strain Ichinose-B95a)
Test: cryo-EM structure

“Measles virus fusion protein (F) ectodomain, prefusion-stabilized with E170G and E455G (FECT 2M) (domain or fragment)” was tested, and the stoichiometry N was 3.
